# In patent US20260098059A1 (ENDOMET BIOSCIENCES, published 2026):
# Where “and” joins values, the source holds several entries; their conditions need not be identical. Identical values can stand only once. [ ]: non-standard residue; d: D form. Trp(1-Me) = Cn1cc(C[C@H](N)C(=O)O)c2ccccc21; αMeW = C[C@](N)(Cc1c[nH]c2ccccc12)C(=O)O; Trp(3-Me) = 3-methyltryptophan; αMeL = CC(C)C[C@](C)(N)C(=O)O
# Biological target: T1, β-catenin (UniProt P35222 134-665, limits assumed, biotinylated in the SPR and plate assays)
# T1 sequence (looked up): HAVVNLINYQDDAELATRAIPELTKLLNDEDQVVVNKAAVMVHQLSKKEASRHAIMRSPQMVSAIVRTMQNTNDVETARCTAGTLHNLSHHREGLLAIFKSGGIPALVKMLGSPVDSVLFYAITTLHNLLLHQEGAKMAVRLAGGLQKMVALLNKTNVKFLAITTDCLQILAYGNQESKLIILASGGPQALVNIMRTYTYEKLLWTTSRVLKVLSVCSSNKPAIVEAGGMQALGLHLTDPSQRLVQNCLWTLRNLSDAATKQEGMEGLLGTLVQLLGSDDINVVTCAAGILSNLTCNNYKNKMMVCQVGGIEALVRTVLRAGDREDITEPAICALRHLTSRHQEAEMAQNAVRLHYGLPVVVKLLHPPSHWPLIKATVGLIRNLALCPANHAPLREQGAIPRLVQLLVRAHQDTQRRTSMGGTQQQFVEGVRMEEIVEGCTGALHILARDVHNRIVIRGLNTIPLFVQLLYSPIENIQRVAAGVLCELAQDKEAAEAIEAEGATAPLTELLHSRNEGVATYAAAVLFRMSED
# Test: cell-based or functional assay
row,Binder,Wnt Reporter EC50
1,"KMWFLICFWD (HELM PEPTIDE1{K.M.W.F.L.I.C.F.W.D}$PEPTIDE1,PEPTIDE1,1:R3-10:R3$$$V2.0; SMILES CC[C@H](C)[C@@H]1NC(=O)[C@H](CC(C)C)NC(=O)[C@H](Cc2ccccc2)NC(=O)[C@H](Cc2c[nH]c3ccccc23)NC(=O)[C@H](CCSC)NC(=O)[C@@H](N)CCCCNC(=O)C[C@@H](C(=O)O)NC(=O)[C@H](Cc2c[nH]c3ccccc23)NC(=O)[C@H](Cc2ccccc2)NC(=O)[C@H](CS)NC1=O) [SEQ ID NO: 170]",> 15 µM and ≤ 22.5 µM
2,"KMWFLISFWD (HELM PEPTIDE1{K.M.W.F.L.I.S.F.W.D}$PEPTIDE1,PEPTIDE1,1:R3-10:R3$$$V2.0; SMILES CC[C@H](C)[C@@H]1NC(=O)[C@H](CC(C)C)NC(=O)[C@H](Cc2ccccc2)NC(=O)[C@H](Cc2c[nH]c3ccccc23)NC(=O)[C@H](CCSC)NC(=O)[C@@H](N)CCCCNC(=O)C[C@@H](C(=O)O)NC(=O)[C@H](Cc2c[nH]c3ccccc23)NC(=O)[C@H](Cc2ccccc2)NC(=O)[C@H](CO)NC1=O) [SEQ ID NO: 171]",≤ 7.5 µM
3,H-KWILICFWG-OH [SEQ ID NO: 117],> 15 µM and ≤ 22.5 µM
4,H-HWILICFWG-OH [SEQ ID NO: 118],≤ 7.5 µM
5,VWFLICFWG (HELM PEPTIDE1{[Nva].W.F.L.I.C.F.W.G}$$$$V2.0; SMILES CCC[C@H](N)C(=O)N[C@@H](Cc1c[nH]c2ccccc12)C(=O)N[C@@H](Cc1ccccc1)C(=O)N[C@@H](CC(C)C)C(=O)N[C@H](C(=O)N[C@@H](CS)C(=O)N[C@@H](Cc1ccccc1)C(=O)N[C@@H](Cc1c[nH]c2ccccc12)C(=O)NCC(=O)O)[C@@H](C)CC) [SEQ ID NO: 141],> 7.5 µM and ≤ 15 µM
6,H-MWFLICH[Trp(1-Me)]G-OH [SEQ ID NO: 140],> 15 µM and ≤ 22.5 µM
7,"KWFLISAWE (HELM PEPTIDE1{K.W.F.L.I.S.A.W.E}$PEPTIDE1,PEPTIDE1,1:R3-9:R3$$$V2.0; SMILES CC[C@H](C)[C@@H]1NC(=O)[C@H](CC(C)C)NC(=O)[C@H](Cc2ccccc2)NC(=O)[C@H](Cc2c[nH]c3ccccc23)NC(=O)[C@@H](N)CCCCNC(=O)CC[C@@H](C(=O)O)NC(=O)[C@H](Cc2c[nH]c3ccccc23)NC(=O)[C@H](C)NC(=O)[C@H](CO)NC1=O) [SEQ ID NO: 183]",≤ 7.5 µM
8,"KWFLICFWE (HELM PEPTIDE1{K.W.F.L.I.C.F.W.E}$PEPTIDE1,PEPTIDE1,1:R3-9:R3$$$V2.0; SMILES CC[C@H](C)[C@@H]1NC(=O)[C@H](CC(C)C)NC(=O)[C@H](Cc2ccccc2)NC(=O)[C@H](Cc2c[nH]c3ccccc23)NC(=O)[C@@H](N)CCCCNC(=O)CC[C@@H](C(=O)O)NC(=O)[C@H](Cc2c[nH]c3ccccc23)NC(=O)[C@H](Cc2ccccc2)NC(=O)[C@H](CS)NC1=O) [SEQ ID NO: 179]",≤ 7.5 µM
9,H-MWFLIHFWG-OH [SEQ ID NO: 163],≤ 7.5 µM
10,"KWFLICFWD (HELM PEPTIDE1{K.W.F.L.I.C.F.W.D}$PEPTIDE1,PEPTIDE1,1:R3-9:R3$$$V2.0; SMILES CC[C@H](C)[C@@H]1NC(=O)[C@H](CC(C)C)NC(=O)[C@H](Cc2ccccc2)NC(=O)[C@H](Cc2c[nH]c3ccccc23)NC(=O)[C@@H](N)CCCCNC(=O)C[C@@H](C(=O)O)NC(=O)[C@H](Cc2c[nH]c3ccccc23)NC(=O)[C@H](Cc2ccccc2)NC(=O)[C@H](CS)NC1=O) [SEQ ID NO: 172]",≤ 7.5 µM
11,"KWFLICAWD (HELM PEPTIDE1{[ac].K.W.F.L.I.C.A.W.D}$PEPTIDE1,PEPTIDE1,2:R3-10:R3$$$V2.0; SMILES CC[C@H](C)[C@@H]1NC(=O)[C@H](CC(C)C)NC(=O)[C@H](Cc2ccccc2)NC(=O)[C@H](Cc2c[nH]c3ccccc23)NC(=O)[C@@H](NC(C)=O)CCCCNC(=O)C[C@@H](C(=O)O)NC(=O)[C@H](Cc2c[nH]c3ccccc23)NC(=O)[C@H](C)NC(=O)[C@H](CS)NC1=O) [SEQ ID NO: 169]",≤ 7.5 µM
12,H-MWFLICHWG-OH [SEQ ID NO: 145],> 7.5 µM and ≤ 15 µM
13,"KWILICFWD (HELM PEPTIDE1{K.W.I.L.I.C.F.W.D}$PEPTIDE1,PEPTIDE1,1:R3-9:R3$$$V2.0; SMILES CC[C@H](C)[C@@H]1NC(=O)[C@H](CC(C)C)NC(=O)[C@H]([C@@H](C)CC)NC(=O)[C@H](Cc2c[nH]c3ccccc23)NC(=O)[C@@H](N)CCCCNC(=O)C[C@@H](C(=O)O)NC(=O)[C@H](Cc2c[nH]c3ccccc23)NC(=O)[C@H](Cc2ccccc2)NC(=O)[C@H](CS)NC1=O) [SEQ ID NO: 120]",≤ 7.5 µM
14,H-M[αMeW]ILISFWG-OH [SEQ ID NO: 134],> 30 µM
15,H-MWI[αMeL]ICFWG-OH [SEQ ID NO: 130],> 22.5 µM and ≤ 30 µM
16,"MWFLICFWD (HELM PEPTIDE1{[O=C(CCCN[*:1])[*:2]].M.W.F.L.I.C.F.W.D}$PEPTIDE1,PEPTIDE1,1:R1-10:R3$$$V2.0; SMILES CC[C@H](C)[C@@H]1NC(=O)[C@H](CC(C)C)NC(=O)[C@H](Cc2ccccc2)NC(=O)[C@H](Cc2c[nH]c3ccccc23)NC(=O)[C@H](CCSC)NC(=O)CCCNC(=O)C[C@@H](C(=O)O)NC(=O)[C@H](Cc2c[nH]c3ccccc23)NC(=O)[C@H](Cc2ccccc2)NC(=O)[C@H](CS)NC1=O) [SEQ ID NO: 147]",> 30 µM
17,"KWFLICAWD (HELM PEPTIDE1{K.W.F.L.I.C.A.W.D}$PEPTIDE1,PEPTIDE1,1:R3-9:R3$$$V2.0; SMILES CC[C@H](C)[C@@H]1NC(=O)[C@H](CC(C)C)NC(=O)[C@H](Cc2ccccc2)NC(=O)[C@H](Cc2c[nH]c3ccccc23)NC(=O)[C@@H](N)CCCCNC(=O)C[C@@H](C(=O)O)NC(=O)[C@H](Cc2c[nH]c3ccccc23)NC(=O)[C@H](C)NC(=O)[C@H](CS)NC1=O) [SEQ ID NO: 168]",≤ 7.5 µM
18,H-MWILISYWG-OH [SEQ ID NO: 152],≤ 7.5 µM
19,H-MWFLIQFWG-OH [SEQ ID NO: 143],> 7.5 µM and ≤ 15 µM
20,H-MWFLICH[Trp(3-Me)]G-OH [SEQ ID NO: 135],> 7.5 µM and ≤ 15 µM
21,H-RWILICFWG-OH [SEQ ID NO: 119],> 7.5 µM and ≤ 15 µM
